The text below walks through data of paper PMC6036246, “SAV4189, a MarR-Family Regulator in Streptomyces avermitilis, Activates Avermectin Biosynthesis” (Frontiers in Microbiology, 2018).

Data set [1] concerns the target T1, SAV4189 (His6-SAV4189) (Streptomyces avermitilis, UniProt Q82FR3).
T1 construct: gene SAVERM_4189; full-length, 171 residues (516-bp CDS), His6-tagged from pET-28a(+) (NdeI/EcoRI), E. coli BL21(DE3), Ni-NTA; tag removal not mentioned; MarR family said to be generally homodimeric
T1 sequence (Q82FR3 1-171): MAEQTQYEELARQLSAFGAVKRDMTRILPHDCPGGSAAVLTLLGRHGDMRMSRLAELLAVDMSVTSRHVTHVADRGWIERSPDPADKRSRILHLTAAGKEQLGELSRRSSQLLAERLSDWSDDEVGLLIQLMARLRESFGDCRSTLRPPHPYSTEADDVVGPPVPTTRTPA
In words: EMSA, release of SAV4189 from DIG-labelled promoter probe […]p. It is filed as binding. As to conditions: 62.5 nM His6-SAV4189, antibiotic in water.

Data set [2] relates to T2, His6-SAV4189 (Streptomyces avermitilis), ORF:1042fb45.
T2 sequence: T1 sequence (Q82FR3 1-171)
The data set is described as follows: EMSA. As to conditions: EMSA as in Luo et al. 2014 (buffer not given), 0.15-0.3 nM DIG probe; footprinting 400 ng probe in 25 ul, 30 min at 25 C.

For data set [3] the test system is unchanged. The data set is described as follows: competition. As to conditions: EMSA as in Luo et al. 2014 (buffer not given), 0.15-0.3 nM DIG probe; footprinting 400 ng probe in 25 ul, 30 min at 25 C.

For the compound `CN[C@H]1C[C@@H](N)[C@H](O)[C@@H](O[C@@H]2O[C@H](CO)[C@H](O)[C@@H]3OC4(O[C@H]23)O[C@H]([C@@H](N)CO)[C@H](O)[C@H](O)[C@H]4O)[C@@H]1O` (stereo partly drawn) [HygB, hygromycin B], the “EMSA, release of SAV4189 from DIG-labelled promoter probe 4189p” value in data set [1] was “SAV4189-4189p complex was disrupted in dose-dependent manner by exogenous HygB and Thi”.
Turning to “AATTGCTGGCCGAAGCCCGCGCGGGTGTGCAGGTCTGAAACCGCCGGGGGTGAGGTTAGGGGGGTGGGAAAACCTAGGGGTTGGTCCCCGGGGTGGCGCCGGATAGTGTCGAAACGGCTGAAACAGCATTACTGGAGCGGTTGAGAAAAGCAATCCCAGATTCTGTGCCAACGCGGGGAGAACGAGTGGAACTGGCGGATTCCGGCGACCTTTTGGAAATATTCGAGCGTACCGAGGAAATGGCGCGGCTCGCGCATGTGCTGGCGAGTGCCGGACAGGGCGAAGGCGGTGTGGTCCTCG (double strand) [olmRIIp]”, the binding result in data set [2] was “binds”.
As for “CATCACACCTCCCGTATTCGTTGCTTAGGGCAACCATAGGAAAGTTGGTTGCCGCAGGCAAACTAAATAGGGTCTTCAGGGATAAAAACTTGGCAAAGGCAAGTATTGGCAGGCGTAAAGCCGCAGGTGGGGAGGTCAGGAGCGGTCG (double strand) [4189p]”, the binding result in data set [2] and in data set [3] was “binds” in each case.
For the compound “CGTGTTCACTTCAGAAACCTCCCTGACGAGGCCGCGACGTTGCGGCCGAGGTGGCTGGAAGTCAACTCGGCCACACGTGCGACGTCAAGAAGTAAATACTTAACGAGATGGCAACGGTGCCATGCGTTCTCTAAGTGAAGGCAGGGGTGGCCGCGGAAAGCGTGCCATCCAAAAGGGTCGAATCGCCCATCTCGCTCAACGCGAGAGCGAGCGCTCCGAGCACCTCGGCGCGGCCCCCAAGTGCCCCTGGAAGCACCGAGAGTTGAC (double strand) [xylFp]”, the binding result in data set [2] is “no binding”.
Same read-out and setting: the result for “GACGACTCATATGCGGCAGGCCCTCCCCAGGACGTCGACAGCCGAAAGGCCTTTGGTTGTCCCCACAACCAGTTGTGACGAGACGACTCTATCCAGCAATCGCCCTCCCGCATATCCACTCGTCAAAGGCAACCCTCTCGGGCCATCTGTGCAGGTCAAGTGACCGGAGGGTAGCTAAGACCGTACCGCGCGGCAGTGCCCGAGCGGTGCGGCCTTGGCAACGTTGATC (double strand) [savR1p]” reads “no binding”.
On the same count and under the same terms, the same measure for “GACTGCCGGAACTCCATGCGCTGTGCCCTCCGGTTCGTGGTGTTACTTGGTTTTACCAAGTCAGAGCTTGGAAAGTCCAACAACATGTCTAGACTGCGTCGCATGCCACCTCGCCGAAGCTACGACCAGTACTGTTCCGCGGCCCGAGCCCTCGACGCCGTCGGTGACCGCTGGACCCTCCTGATCGTCCG (double strand) [aspB1p]”: “binds”; for “TCATGGGATCTCCGGTGCCGAAGAGGGGACGAGAGCCACTCGGATTTTCTATGGTTAGGCTTACCTAAGTCAACGGGTTCCCGACATCCCGTCGGTAAAATCGTACCCCCGATTCCGATCAAGCCCACAGGAAAAGCCCGCCCCCCGAAGGGAGCGGGCTTTCGCGCGGCGGGCGGGACTACGGCAGCGTCAGGATGTCCGCCCCGCTGTCCGT (double strand) [hmuOp]”: “binds”; for “TCCGGACTTGACTGATCTCGACAGTACTTGGCGCACTTGGCCCACTTGGGATCATTGCGGCGGTTGTTACCGCCCGTAAAGCACCATAAGCGCAGCGGGCGGGAGTTCAAACCCGATCAGCTTGGATAAGGTAAGCCTTACCTGTCAACGATCGTGAAGTCGGTGGTCCCCGCATGCCCTCGCCCGTCGCGGATGCCTACGCAAGGCTGACCGA (double strand) [2073p]”: “binds”.
Still for that read-out and setting: the same measure for “TGACCCCTCCCGCCACTTCCCCCGGCACTTTCCATCGCTTCTCGCCGTGAATTGCAGAGATTCCCCACACACTTATCCCGTTATTAATTCAGAACAGCTTCCCGCATTCTTCTGCCCGCTTTCTTTCGTGCTAAACGCAAAGATTTCGCGAACACCAACCGGCTTAATTCGGGCAGGTCCCGCACGGGTCGTCCACTTGTGATCGACTCCACATCGCACCCCTTTCCTCCCGTATTTTCCGGACAAAATGGGGGTTATCGACGC (double strand) [ectAp]”: “binds”.
As to “TTGATGACCTCGACCATGTGCACCGGGATACGGATGGTGCGGGCCTGGTCGGCCATGGCGCGGGTGATCGCCTGACGGATCCACCAGGTGGCGTACGTGGAGAACTTGTAGCCCTTGG (double strand) [hrdB]”, the binding entry in data set [2] and in data set [3] was “no binding” in each case.
